Measurements: PMC4763223

Key:
Experiment in all cases: GEMMA (gas-phase electrophoretic mobility macromolecule analysis); DNA-free protein; equilibrated into 100 mM ammonium acetate pH 7.8, diluted to 20 mM ammonium acetate and 0.005% Tween-20; low flow-rate (pressure 2 Psi); non-tagged Kat1 at 0.085 mg/ml
[1] = molecular target: Glutathione S-transferase (GST) alone
[2] = molecular target: Glutathione S-transferase (GST)-tagged Kat1+G (Kluyveromyces lactis hAT-transposase 1) (Kluyveromyces lactis)
[3] = molecular target: non-tagged Kat1 (GST-tag cleaved from GST-Kat1 with thrombin) (Kluyveromyces lactis)

Sequence of Glutathione S-transferase (GST) alone (P08515 2-218): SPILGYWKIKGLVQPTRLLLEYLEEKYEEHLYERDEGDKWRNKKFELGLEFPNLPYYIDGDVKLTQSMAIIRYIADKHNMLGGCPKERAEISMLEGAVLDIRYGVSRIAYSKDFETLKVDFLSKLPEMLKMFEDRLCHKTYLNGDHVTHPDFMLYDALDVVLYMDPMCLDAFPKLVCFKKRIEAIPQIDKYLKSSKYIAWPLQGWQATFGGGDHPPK

## Glutathione S-transferase (GST) alone (enzyme)
[1]
  stoichiometry N: 2

## Glutathione S-transferase (GST)-tagged Kat1+G (Kluyveromyces lactis hAT-transposase 1) (enzyme)
[2]
  stoichiometry N: 6

## non-tagged Kat1 (GST-tag cleaved from GST-Kat1 with thrombin) (enzyme)
[3]
  stoichiometry N: 6
